# Measured values published in the nanobody polyreactivity screen of Harvey et al. (2022).
# Test: yeast display, Sf9 membrane polyspecificity reagent, FACS + sequencing; frameworks hold sequencing errors
# In short: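 After 36–48 hours of galactose induction, yeast (Saccharomyces cerevisiae BJ5465) displaying a synthetic nanobody library were stained at 4 °C for 1 hour with 10% biotinylated, detergent-solubilized Sf9 membrane reagent. Streptavidin microbeads enriched the stained cells before FACS sorting into low and high (top ~1%) gates on anti-HA and streptavidin fluorescence. Each clone's polyreactivity label reflects its gate of origin.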
row,Sequence,polyreactivity (PSR sort gate)
1,QVQLVESGGGLVQAGGSLRLSCAASGSTFRGNAMGWYRQAPGKERELVAAISSSGGSTNYADSVKGRFTISRDNAKNTVYLQMNSLKPEDTAVYYCAAERYFVWPFLLKYDYWGQGTQVTVSS,low polyreactivity
2,QVQLVESGGGLVQAGGSLRLSCAASGSTFRGNTMGWYRQAPGKERELVAVISWSDGHTYYADSVKGRFSSSRDYAKNTGYLQMNSLKPEDPAVYYCAAPDPFYDLDSWGQGTQVTVSS,high polyreactivity
3,QVQLVESGGGLVQAGGSLRLSCAASGSTFRGYAMGWYRQAPGKERELVAAIRFSGGRTYYADSVKGRFTISRDNAKNTVYLQMNSLKPEDTAVYYCAKDYRPGWTGTDFYYWGQGTQVTVSS,low polyreactivity
4,QVQLVESGGGLVQAGGSLRLSCAASGSTFRGYVMGWYRQAPGQERELVAVINSSGGRTYYADSVKGRFTISRDNAKNTVYLQMNSLKPEDTAVYYCAARVLQYSGYYYWGQGTQVTVSS,high polyreactivity
5,QVQLVESGGGLVQAGGSLRLSCAASGSTFRHYAMGWYRQAPGKERELVAAISSTGGSTYYADSVKGRFTISRDNAKNTVYLQMNSLKPEDTAVYYCAARRLYWGQGTQVTVSS,high polyreactivity
6,QVQLVESGGGLVQAGGSLRLSCAASGSTFRHYAMGWYRQQPGKERELVAAISSRGGSTYYADSVKGRFTISRDNAKNTVYLQMNSLKPEDTAVYYCNVVGYLRPSYRHMDYWGQGTQVTVSS,high polyreactivity
7,QVQLVESGGGLVQAGGSLRLSCAASGSTFRIYAMGWYRQQHGKESEFVAAITGGGTHYADSVKGRFTISRDNAKNTVYLQMNRLKPEDTAVYFCAAGYFIRTLSRYRYDYWGQGTQVTVSS,high polyreactivity
8,QVQLVESGGGLVQAGGSLRLSCAASGSTFRKYAMGWYRQAPGKERELVATISRGTSTYYADSVKGRFTISRDNAKNTVYLQMNSLKPEDTAVYYCNAGYYNKRDGGYTYNYWGQGTQVTVSS,low polyreactivity
9,QVQLVESGGGLVQAGGSLRLSCAASGSTFRNNGMGWYRQAPGKERELVAAITKSGGSTYYADSVKGRFTISRDNAKNTVYLQMNSLKPEDTAVYYCAARFWYNTPRVGWRRYNYWGQGTQVTVSS,high polyreactivity
10,QVQLVESGGGLVQAGGSLRLSCAASGSTFRNYAMGWYRQAPGKEREFVAAITWSGGRTYYADSVKGRFTISRDNAKNTVYLQMNSLKPEDTAVYYCAARYRRGYDYWGQGTQVTVSS,high polyreactivity
11,QVQLVESGGGLVQAGGSLRLSCAASGSTFRPYAMGWYRQAPGKERELVAAITSTDVNTYYADSVKGRFTISRDNAKNTVYLQMNSLKPEDTAVYYCAAVYLGYYGVSDMEYWGQGTQVTVSS,high polyreactivity
12,QVQLVESGGGLVQAGGSLRLSCAASGSTFRPYSMGWYRQAPGKEREFVAAINYRGGSTNYADSVKGRFTISRDNAKNTVYLQMNSLKPEDTAVYYCAATYYLRLRRPYWQGFNYWGQGTQVTVSS,high polyreactivity
13,QVQLVESGGGLVQAGGSLRLSCAASGSTFRPYTMGWYRQAPGKERELVAAINRRGSSTYYADSVKGRFTISRDNAKNTVYLQMNSLKPEDTAVYYCNAVPGSRYGTYDYWGQGTQVTVSS,high polyreactivity
14,QVQLVESGGGLVQAGGSLRLSCAASGSTFRQNAMGWYRQAPGKERELVAAITYRVASTYYADSVKGRFTISRDNAKNTVYLQMNSLKPEDTAVYYCAARFGSGFNYWGQGTQVTVSS,high polyreactivity
15,QVQLVESGGGLVQAGGSLRLSCAASGSTFRQYAMGWYRQAPGKERELVAAISSGGRTNYADSVKGRFTISRDNAKNTVYLQMNSLKPEDTAVYYCAADIRRRVPVRGYYYWGQGTQVTVSS,high polyreactivity
16,QVQLVESGGGLVQAGGSLRLSCAASGSTFRRNAMGWYRQAPGKERELLAAISRRGGSTYYADSVKGRFTISRDNAKNTVYLQMNSLKPEDTAVYYCASAVTTYSQGQGVYSWGQGTQVTVSS,high polyreactivity
17,QVQLVESGGGLVQAGGSLRLSCAASGSTFRRNAMGWYRQAPGKERELVAAISRSGGSTYYADSVKGRFTISRDNAKNTVYLQMNSLKPEDTAVYYCAADAARTSHWSGDYWGQGTQVTVSS,high polyreactivity
18,QVQLVESGGGLVQAGGSLRLSCAASGSTFRRNAMGWYRQAPGKERELVAAISSGGGSTYYADSVKGRFTISRDNAKNTVYLQMNSLKPEVTAVYYCAAGYFGHYVEYYYWGQGTQVTVSS,high polyreactivity
19,QVQLVESGGGLVQAGGSLRLSCAASGSTFRRNAMGWYRQAPGKERELVAAITRRGGTYYADSVKGRFTISRDNAKNTVYLQMNSLKPEDTAVYYCAADRSYYDWRYGGFDYWGQGTQVTVSS,high polyreactivity
20,QVQLVESGGGLVQAGGSLRLSCAASGSTFRRNAMGWYRQAPGKERELVASITSGGSTYYADSVKGRFTISRDNAKNTVYLQMNSLKPEDTAVYYCAVVWRGGYRWPYEYWGQGTQVTVSS,low polyreactivity
21,QVQLVESGGGLVQAGGSLRLSCAASGSTFRRNVMGWSRQAPGKERELVAVISKSGGSTYYADSVKGRFTISRDNAENTVYLQMNSLKPEDTAVYYCAARYLKGYGYWGQGTQVTVSS,high polyreactivity
22,QVQLVESGGGLVQAGGSLRLSCAASGSTFRRYAMGWYRQAPGKEREISTSDGSTYYADSVKGRFTISRDNAKNTVYLQMNSLKPEDTAVYYCATEIEYYVGSVPDMGYWGQGTQVTVSS,low polyreactivity

row,Sequence,polyreactivity (PSR sort gate)
1,QVQLVESGGGLVQAGGSLRLSCAASGSTFRRYAMGWYRQAPGKERELVAGISYSGGRTYYADSVKGRFTISRDNAKNTVYLQMNSLKPEDTAVYYCAAKSFPSVRHHENYYWGQVTQVTVSS,high polyreactivity
2,QVQLVESGGGLVQAGGSLRLSCAASGSTFRRYVMGWYRQAPGKERELVAAIRWNVGSTYYADSVKGRFTISRDNAKNTVYLQMNSLKPEDTAVYYCAAYEYVRGGYGYWGQGTQVTVSS,high polyreactivity
3,QVQLVESGGGLVQAGGSLRLSCAASGSTFRSNAMGWYRQAPGKERELVAAIRYSGGSTYYADSVKGRFTISRDNAKNTVYLQMNSLKQEDTAVYYCATRFRTYYVDHGYWGQGTQVTVSS,high polyreactivity
4,QVQLVESGGGLVQAGGSLRLSCAASGSTFRSYAMGWYRQAPGKEREFVAALSSSDDSSYYADSVKGRFTISRDNAKNTVYLQMNSLKPEDTAVYYCAARPWNDGYYVGRFHMDYWGQGTQVTVSS,low polyreactivity
5,QVQLVESGGGLVQAGGSLRLSCAASGSTFRSYAMGWYRQSPGNERELVAAISYSGDSTYYADSVKGRFTISSDNAKNTVYLQMNSLKPEDTAVYYCAALRDWDIQCEPWKRYGYWGQGTQVTVSS,low polyreactivity
6,QVQLVESGGGLVQAGGSLRLSCAASGSTFRSYTMVWYRQAPGKERELVADINGTGGSTYYADSVKGRFTISRDNAKNTVYLQMNSRKPEDTAVYNCAADGYFRTVTSGWALRMGYWGQGTQVTVSS,high polyreactivity
7,QVQLVESGGGLVQAGGSLRLSCAASGSTFRTNGMGWYRQAPGKESELVAAITRGTSTNYADSVKGRFTISRDNAKNTVYLQMNSLKPEDTAVYYCAADGPDRYHYTTTRYRYDYWGQGTQVTVSS,low polyreactivity
8,QVQLVESGGGLVQAGGSLRLSCAASGSTFRTNTMGWYRQAPGKERELVADISWSGGSTYYADSVKGRFTISRDNAKNTVYLQMNSLKPEDTAVYYCAKDGAYWTYFSWYDYWGQGTQVTVSS,low polyreactivity
9,QVQLVESGGGLVQAGGSLRLSCAASGSTFRTYAMGWYRQAPGKERELVADITWRGGSTYYADSVKGRFTISRDNAKNTVYLQMNSLKPEDTAVYYCATDRGPEVVLYDYWGQGTQVTVSS,low polyreactivity
10,QVQLVESGGGLVQAGGSLRLSCAASGSTFRTYAMGWYRQAPGKERELVASIDSTGSTNYADSVKGRFTISRDNAKNTVYLQMNSLKPEDTAVYYCAAETYSYPPFYAYDYWGQGTQVTVSS,low polyreactivity
11,QVQLVESGGGLVQAGGSLRLSCAASGSTFRVNAMGWYRQAHGKEREFVAGISFGGGSTYYADSVKGRFTISRDNAKNTVYFQMNSLKPEDTADYYCNARGKGSGAVRYNYWGQGTLVTVSS,high polyreactivity
12,QVQLVESGGGLVQAGGSLRLSCAASGSTFRVNAMGWYRQAPGKERELVAAISYRGGSTYYADSVKGRFTISRDNAKNTVYLQMNNLKPEDTAVYYCNADLKRRTYGPDSYYWGQGTQVTVSS,high polyreactivity
13,QVQLVESGGGLVQAGGSLRLSCAASGSTFRVNDMGWYRQAPGKESEFVAGISWSGGSTYYADSVKGRFTISRDNAKNTVYLQMNTLKPEETAVYYCAADGYGQGNNRNYNYGGQGTQVTVSS,low polyreactivity
14,QVQLVESGGGLVQAGGSLRLSCAASGSTFRVYAMGWYRQAPGKERELVAAISGSGGSTYYADSVKGRFTISRDNAKNTVSLQMNSMKPEDTAVYYCAARSWYTEYYWGQGTQVTVSS,high polyreactivity
15,QVQLVESGGGLVQAGGSLRLSCAASGSTFRVYAMGWYRQAPGKERELVAAISRSGSITYYADSVKGRFTISRDNAKNTVYLQMNSLKPEDTAVYYCAARTYSRFTASTYYYWGQGTQVTVSS,high polyreactivity
16,QVQLVESGGGLVQAGGSLRLSCAASGSTFRWNTMGWDRQAPGKEREMVAAISYSGGITYYADSVKGRFTISRDNAKNTVYLQMNSLKPEDTAVYYCNLVAYRSYLSSYDYWGQGTQVTVSS,high polyreactivity
17,QVQLVESGGGLVQAGGSLRLSCAASGSTFRWYAMGWYRQAPGKERELVAAITSSGSTYYADSVKGRFTISRDNAKNTVYLQMNSLKPEDTAVYYCAARANGYWNTYEHDYWGQGIQVTVSS,low polyreactivity
18,QVQLVESGGGLVQAGGSLRLSCAASGSTFRWYTMGWYRQATGKERDLVAAINQSGSRTYYADSVKGRFTISRDNAKNTVYLQMNSLKPEDTAVYYCNAKSYKSPHTYYYWGQGTQVTVSS,high polyreactivity
19,QVQLVESGGGLVQAGGSLRLSCAASGSTFRYNAMGWYRQAPGKERELVAAINRGGGTDYADSVKGRFTISRDNAKNTVYLQMNSLKPEDTAVYYCNATTGYGGYNYWGQGTQVTVSS,low polyreactivity
20,QVQLVESGGGLVQAGGSLRLSCAASGSTFRYNAMGWYRQAPGKERELVAAITGSGDRTFYADSVKGRFTISRDNAKNTVYLQMNSLKPEDTAVYYCAARSRYPFSYGYYYWGQGTQVTVSS,high polyreactivity
21,QVQLVESGGGLVQAGGSLRLSCAASGSTFRYNAMGWYRQAPGKERELVAAITSGGGTNYADSVKGRFTISRDNAKNTVYLQMNSLKPEDTAVYYCAAGAWRGPYSGYYYWGQGTQVTVSS,low polyreactivity
